Data reported in article doi:10.1101/528042 (bioRxiv, 2019).

Target: the molecule itself
Experiment: SEC

B1: S-OPA1 (short S1 isoform of splice form 1 human OPA1), wild type (natural protein, UniProt O60313 196-960, looked up)
chain: TDRGSESDKHFRKVSDKEKIDQLQEELLHTQLKYQRILERLEKENKELRKLVLQKDDKGIHHRKLKKSLIDMYSEVLDVLSDYDASYNTQDHLPRVVVVGDQSAGKTSVLEMIAQARIFPRGSGEMMTRSPVKVTLSEGPHHVALFKDSSREFDLTKEEDLAALRHEIELRMRKNVKEGCTVSPETISLNVKGPGLQRMVLVDLPGVINTVTSGMAPDTKETIFSISKAYMQNPNAIILCIQDGSVDAERSIVTDLVSQMDPHGRRTIFVLTKVDLAEKNVASPSRIQQIIEGKLFPMKALGYFAVVTGKGNSSESIEAIREYEEEFFQNSKLLKTSMLKAHQVTTRNLSLAVSDCFWKMVRESVEQQADSFKATRFNLETEWKNNYPRLRELDRNELFEKAKNEILDEVISLSQVTPKHWEEILQQSLWERVSTHVIENIYLPAAQTMNSGTFNTTVDIKLKQWTDKQLPNKAVEVAWETLQEEFSRFMTEPKGKEHDDIFDKLKEAVKEESIKRHKWNDFAEDSLRVIQHNALEDRSISDKQQWDAAIYFMEEALQARLKDTENAIENMVGPDWKKRWLYWKNRTQEQCVHNETKNELEKMLKCNEEHPAYLASDEITTVRKNLESRGVEVDPSLIKDTWHQVYRRHFLKTALNHCNLCRRGFYYYQRHFVDSELECNDVVLFWRIQRMLAITANTLRQQLTNTEVRRLEKNVKEVLEDFAEDGEKKIKLLTGKRVQLAEDLKKVREIQEKLDAFIEALHQEK
**Q.** With B1 as the protein, how does the “stoichiometry N” value read?
**A.** 2
